Results: patent US20230094463A1, “ANTIBODIES THAT DISRUPT THE INTERACTION OF GAL3 AND INSULIN RECEPTOR OR INTEGRINS AND METHODS OF USE THEREOF” (TrueBinding, Inc., priority 2019, published 2023)

How the values were obtained:
[1] = biological target: T1, Gal3 peptides (SEQ ID NOs: 3-26) (Homo sapiens, UniProt P17931); experiment: Gal3 peptide library binding ELISA (epitope mapping); details: for binding to Gal3 Peptide 6: Peptide 6 (SEQ ID NO: 8); for binding to Gal3 Peptide 1: Peptide 1 (SEQ ID NO: 3), amino acids 1-20 of Gal3; for binding to Gal3 Peptide 7: Peptide 7 (SEQ ID NO: 9), amino acids 61-80 of Gal3
T1 construct: a library of 24 amino acid peptides representing portions of Gal3; purchased LifeTein custom order
Protocol: To identify the epitopes to which Gal3 antibodies with and without Gal3-INSR blocking activity bound, a library of 24 amino acid peptides representing portions of Gal3, depicted in FIG. 27, was produced and the ability of each peptide to bind Gal3 antibodies was evaluated by ELISA. At least 2 μg/ml of hGal3 peptide in 50 μl of PBS or 0.1 μg/ml of full-length human Gal3 protein (GenScript) and human Galectin-3 protein (Acro Biosystems, GA3-H5129) were diluted in PBS (Corning, 21-030-CM) to concentrations of at least 2 μg/ml or 0.1 μg/ml, respectively, and added to the wells of a 96-well ELISA plate (Thermo Fisher, 44-2404-21). After incubating the plate at 4° C. overnight, the plate was washed three times with PBST (PBS with 0.05% Tween 20 [VWR, 0777]). The plate was then blocked for an hour with 2% BSA (EMD Millipore, 126609) in PBST at room temperature with gentle rocking. Thereafter, the 2% BSA in PBST was discarded and human Galectin-3 hybridoma supernatants or antibodies were diluted in 2% BSA in PBST to concentrations of at least 0.1 μg/ml and added to the wells. The plate was incubated for an hour at room temperature with gentle rocking and then washed three times with PBST. Afterwards, Goat Anti-Mouse IgG-HRP (Jackson ImmunoResearch, 115-036-1461) or Goat Anti-Rat IgG HRP (Abcam, ab205720) diluted in 2% BSA in PBST (1:4000) were added to the wells. The plate was incubated for 30 minutes to 1 hour at room temperature with gentle rocking and then washed three times with PBST. TMB substrate (Thermo Scientific, 34029) was then added to each well. The reaction was stopped with 1M HCl (JT Baker, 5620-02) and read using a plate reader (Molecular Devices) at absorbance of 450 nm.
Human Gal3 peptides (LifeTein, custom order) and human Gal3 proteins (R&D Systems, 8259-GA; TrueBinding, QCB200349) were diluted in PBS (Corning, 21-030-CM) to concentrations of at least 100 μg/mL (peptides) or 1 μg/mL (proteins), and added to the wells of several 96-well ELISA plates (Thermo Fisher, 44-2404-21). After incubating the plates at 4° C. overnight, the plates were washed three times with PBST (PBS with 0.05% Tween 20 [VWR, 0777]). The plates were then blocked for an hour with 2% BSA (EMD Millipore, 126609) in PBST at room temperature with gentle rocking. Thereafter, the 2% BSA in PBST was discarded and Gal3-binding antibodies (reformatted hIgG4 [S228P]) were diluted in 2% BSA in PBST to concentrations of 5 μg/mL and added to the wells. The plates were incubated for an hour at room temperature with gentle rocking and then washed three times with PBST. Afterwards, Peroxidase AffiniPure F(ab′)2 Fragment Goat Anti-Human IgG (H+L) polyclonal antibody (Jackson ImmunoResearch, 109-036-003), was diluted in 2% BSA in PBST (1:4000) and added to the wells. The plates were incubated for 1 hour at room temperature with gentle rocking and then washed three times with PBST. TMB substrate (Thermo Scientific, 34029) was then added to each well. The reaction was stopped with 1M HCl (JT Baker, 5620-02) and read using a plate reader (Molecular Devices) at absorbance of 450 nm.

[2] = biological target: T2, human Gal3 (Homo sapiens, UniProt P17931); experiment: Antibody binning assays (competition for binding to Gal3); details: binning per Examples 3 and 18
T2 construct: His; purchased AcroBio GA3-H5129
T2 sequence (P17931 whole entry): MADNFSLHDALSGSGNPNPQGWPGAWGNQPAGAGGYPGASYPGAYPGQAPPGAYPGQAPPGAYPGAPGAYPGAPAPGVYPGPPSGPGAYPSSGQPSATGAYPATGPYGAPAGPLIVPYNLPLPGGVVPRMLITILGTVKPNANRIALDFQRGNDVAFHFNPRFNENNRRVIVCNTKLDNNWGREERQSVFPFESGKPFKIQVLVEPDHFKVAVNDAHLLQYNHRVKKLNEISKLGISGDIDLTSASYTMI
Protocol: To determine whether Gal3-binding antibodies with Gal3-INSR blocking activity bind to the same or overlapping regions of the Gal3 molecule, antibody binning assays were performed to assess the ability of antibodies to simultaneously bind Gal3. Amine-reactive probes were loaded onto a Gator biosensor (Probe Life, Palo Alto, Calif.), equilibrated in dH20 for 60 seconds, dipped into 100 μl EDC 0.2M/NHS 0.05M activation buffer for 30 seconds, then dipped into a solution of […] human Gal3-His in 10 mM NaOAc buffer, pH 5 until binding was saturated, and quenched in 1 M ethanolamine pH 8.5 for 300 seconds. Following Gal3-His loading, tips were dipped in 20 μg/mL saturating antibody, then successively dipped into 5 μg/mL competing antibody.
The epitope binning assay was done in a sandwich format on the high-throughput SPR-based Carterra LSA unit (CarterraBio, Salt Lake City, Utah). First, the purified antibodies were diluted to 10 μg/ml concentration in 10 mM NaOAc (pH 5.0) and then were covalently coupled via amine group to HC200M chip activated by EDC and S-NHS to immobilize antibodies to different positions of a 384-spot array. One hundred thirty-eight binning cycles were run on the array of immobilized antibodies. In each cycle, first, human Gal3 (AcroBio GA3-H5129) was injected over the entire array to bind to different antibodies (primary antibody), followed by one antibody (secondary antibody) selected among the panel of 150 anti-GAL3 antibodies tested. At the end of each cycle, the array was regenerated by 10 mM Glycine (pH 2.0) to remove bound antigen and secondary antibody from the array. The data analysis was done using the Epitope software by CarterraBio.

B1: 13A12.2E5: anti-Gal3 monoclonal antibody (antibody, V domains shown)
VH: QIQLVQSGPELKKPGETVKISCKTSGYKFKTYVMSWVKQAPGKALKWMGWINTYSGVPTYADDFKGRFAFSLETSASTAYLEIINLKNEDTATYFCARDGNYGDPMDYWGQGTSVTVSS
VL: DVVMTQTPLTLSVAIGQPASISCKSSQSLLYTNGKTYLNWLLQRPGQSPKRLIYLLSKLDSGVPDRFSASGSGTDFTLKISRVEAEDLGVYYCLQSTHFPLTFGAGTKLEMK
- binding to Gal3 Peptide 4 ([1]; Peptide 4 (SEQ ID NO: 6), amino acids 31-50 of Gal3): bind
- binding to Gal3 Peptide 6 ([1]; amino acids 51-70 of Gal3): bind and bound

B2: F847C.10B9: anti-Gal3 antibody (antibody, V domains shown)
VH: QIQLVQSGPEVKKPGETVKISCKASGYIFTNYGMNWVKQAPGKGLKWMGWINTYTGEPTYTDDFKGRFAFSLETSASTAYLQINNLKNEDTATYFCAKFGNYVGAMDYWGQGTSVTVSS
VL: DIRMTQSPSSLSASLGDTITITCHASQNINVWLSWYQQKPGNIPKLLIYKASNLHTGVPSRFSGSGSGTGFTLTISSLQPEDIATYYCQQGQSYPYTFGGGTKLELK
- binding to Gal3 Peptide 1 [1]: bind and bound
- binding to Gal3 Peptide 7 [1]: bind and bound

B3: F847C.26F5: anti-Gal3 antibody (antibody, V domains shown)
VH: QIQLVQSGPEVKKPGETVKISCKASGYIFTNYGMNWVKQAPGKGLKWMGWINTYTGEPTYTDDFKGRFAFSLETSASTAYLQINNLKNEDTATYFCAKFGNYVGAMDYWGQGTSVTVSS
VL: EIKMNQSPSSLSASLGDTITITCHASQNINVWLSWYQQKPGNIPKLLIYKASNLHTGVPSRFSGSGSGTGFTLTISSLQPEDIATYYCQQGQSYPYTFGGGTKLELK
- binding to Gal3 Peptide 1 [1]: bind and bound
- binding to Gal3 Peptide 7 [1]: bind and bound

B4: F847C.12F12: anti-Gal3 antibody (antibody, V domains shown)
VH: QIQLVQSGPELKKPGETVKISCKASGYTFTNYGMNWVKQAPGKGLKWMGWINTYTGEPTYVDDFKGRFAFSLETSASTAYLRINNLKNEDTATYFCAKFGNYVGAMDYWGQGTSVTVSS
VL: DIQVIQSPSSLSASLGDTITITCHASQNINVWLSWYQQKPGNIPKLLIYKASNLHTGVPSRFSGSGSGTGFTLTISSLQPEDIATYYCQQGQSYPYTFGGGTKLELK
- binding to Gal3 Peptide 1 [1]: bind and bound
- binding to Gal3 Peptide 7 [1]: bind and bound

B5: F846C.1B2: anti-Gal3 antibody (antibody, V domains shown)
VH: QIQLVQSGPELKKPGETVKISCKASGYTFTNYGMNWVKQAPGKGLKWMGWINTYTGEPSYADDFKGRFAFSLETSASTAYLQINNLKNEDMATYFCARWGGYAGDYYAMDFWGQGTSVTVSS
VL: NIWLTQSPSSLAVSAGEMVTMTCKSSQSVLYSSNQKNYLAWYQQKPGQSPKLLIYWASTRESGVPDRFTGSGSGTDFSLTISSVQAEDLAVYYCHQYLSSLTFGAGTKLELK
- binding to Gal3 Peptide 5 ([1]; Peptide 5 (SEQ ID NO: 7)): bind
- binding to Gal3 Peptide 6 ([1]; amino acids 51-70 of Gal3): bind and bound
- binding to Gal3 Peptide 7 [1]: bind and bound

B6: F846C.2H3: anti-Gal3 antibody (antibody, V domains shown)
VH: QIQLVQSGPELKKPGETVKISCKASGYTFTNYGMNWVKQAPGKGLKWMGWINTYTGEPSYADDFKGRFAFSLETSASTAYLQINNLKNEDMATYFCARWGGYDGDYYAMDYWGQGTSVTVSS
VL: NIMMTQSPSSLAVSAGEKVTMSCKSSQSVLYSSNQKNYLAWYQQKPGQSPKLLIYWASTRESGVPDRFTGSGSGTDFTLTISSVQPEDLAVYYCHQYLSSLTFGAGTKLELK
- binding to Gal3 Peptide 6 ([1]; amino acids 51-70 of Gal3): bind and bound

B7: 19B5.2E6: anti-Gal3 monoclonal antibody (antibody, V domains shown)
VH: QIQLVQSGPELKKPGETVKISCKASGYTFTTYAMSWVKQAPGKGLKWMGWINTYSGVPTYADDLKGRFAFSLETSASTAYLQINNLKNEDTATYFCARGPYAMDYWGQGTSVTVSS
VL: DIQMTQTTSSLSASLGDRVTISCSASQGINNYLNWYQQKPDGTVKLLIYYASSLHSGVPSRFSGSGSGTDYSLTISNLEPEDIATYYCQQYSQVPYTFGSGTKLEIK
- binding to Gal3 Peptide 1 [1]: bind and bound
- binding to Gal3 Peptide 7 [1]: bind and bound
- epitope bin (competitive binding to Gal3) [2]: bin 3

B8: TB006: anti-Gal3 antibody (antibody, V domains shown)
VH: QVQLVQSGAEVKKPGASVKVSCKASGYSFTNYYMHWVRQAPGQRLEWMGWIYPGSGNTNYNEKFQGRVTITADTSASTAYMELSSLRSEDTAVYYCSTAPGGFDVWGQGTTVTVSS
VL: DIVMTQTPLSLSVTPGQPASISCKSSKSLLHSDGITYLYWYLQKPGQSPQLLIYRMSNLASGVPDRFSGSGSGTDFTLKISRVEAEDVGVYYCAQMLEFPLTFGQGTKLEIK
- binding to Gal3 Peptide 6 ([1]; amino acids 51-70 of Gal3, listed as IMT006 (TB006)): bind and bound

B9: 20D11.2C6: anti-Gal3 monoclonal antibody (antibody, V domains shown)
VH: EVQLQQSGPELVKPGASVKISCKASGYTFTDFYINWVKQSHGKSLEWIGDINPKNGGINYNPKFKIKATLTVDKSSSTSYMDLRGLTSEDSAVYYCTSGYGFPYWGQGTLVTVSA
VL: DIQMNQSPSSLSASLGDTITITCRASQNIYIWLSWYQQKPGNIPKLLIYKASNLHTGVPSRFSGSGSGTDFTLTISTLQPEDIATYFCLQGQSYPLTFGAGTKLEMK
- binding to Gal3 Peptide 1 [1]: bind and bound
- binding to Gal3 Peptide 6 ([1]; amino acids 51-70 of Gal3): bound
- binding to Gal3 Peptide 7 [1]: bind and bound
- epitope bin (competitive binding to Gal3) [2]: bins 5

B10: F846C.1H5: anti-Gal3 antibody (antibody, V domains shown)
VH: EVQLLESGGGLVKPGGSLKLSCAASGFTFSSYAMSWVRQTPEKRLEWVASISSGGDTYYPDSVKGRFTISRDNARNILYLQMSSLRSEDTAMYYCASYGNSLFDYWGQGTTLTVSS
VL: DVVMTQTPLSLPVSLGDQASISCRSSQSLVHNSGNTYLHWYLQRPGQSPNLLIYKVSNRFSGVPDRFSGSGSGTDFTLKISRVAAEDLGVYFCSQSTHVPPTFGGGTKLEIK
- binding to Gal3 Peptide 1 [1]: bind and bound
